Units of H5 conjugated per nanoparticle (units of H5 per nanoparticle) data for one substance are collected here from US20250073334A1.

The assay concerns the target CpG-ST-E2 nanoparticle (ST-E2 with CpG 1826 conjugated in the internal cavity) (Geobacillus stearothermophilus). Briefly: SpyTag-SpyCatcher reaction, SDS-PAGE.

In turn, SpyCatcher-H5 hemagglutinin construct yielded a units of H5 conjugated per nanoparticle (units of H5 per nanoparticle) of 17.1.
